B1: NET1 (parent)
chain: RVRPLARVTSLANLISPVRNGAVR

Variants of: B1
Test: protein stability index of a GFP-peptide fusion (GPS, HEK-293T) (PSI 1-6); higher = more stable
Details: c terminus: a fixed tail appended
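Also: lentivirally expressed fusions sorted by FACS into six bins by GFP to DsRed ratio, PSI derived from sequencing read proportions per bin multiplied by bin number.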

| Variant | protein stability index |
| --- | --- |
| RVRPLNRVTSLANLISPVRNGAVR | 2.93 |
| RVRPLPRVTSLANLISPVRNGAVR | 3.04 |
| RVRPLQRVTSLANLISPVRNGAVR | 3.17 |
| RVRPLRRVTSLANLISPVRNGAVR | 3.33 |
| RVRPLSRVTSLANLISPVRNGAVR | 2.53 |
| RVRPLTRVTSLANLISPVRNGAVR | 2.9 |
| RVRPLVRVTSLANLISPVRNGAVR | 3.36 |
| RVRPLWRVTSLANLISPVRNGAVR | 2.35 |
| RVRPLYRVTSLANLISPVRNGAVR | 2.02 |
| RVRPLAAVTSLANLISPVRNGAVR | 3.88 |
| RVRPLACVTSLANLISPVRNGAVR | 2.39 |
| RVRPLADVTSLANLISPVRNGAVR | 2.84 |
| RVRPLAEVTSLANLISPVRNGAVR | 2.5 |
| RVRPLAFVTSLANLISPVRNGAVR | 1.85 |
| RVRPLAGVTSLANLISPVRNGAVR | 3.93 |
| RVRPLAHVTSLANLISPVRNGAVR | 2.71 |
| RVRPLAIVTSLANLISPVRNGAVR | 2.43 |
| RVRPLAKVTSLANLISPVRNGAVR | 2.26 |
| RVRPLALVTSLANLISPVRNGAVR | 2.83 |
| RVRPLAMVTSLANLISPVRNGAVR | 2.64 |
| RVRPLANVTSLANLISPVRNGAVR | 3.31 |
| RVRPLAPVTSLANLISPVRNGAVR | 3.81 |
| RVRPLAQVTSLANLISPVRNGAVR | 3.37 |
| RVRPLASVTSLANLISPVRNGAVR | 2.78 |

| Variant | protein stability index |
| --- | --- |
| RVRPLATVTSLANLISPVRNGAVR | 3.39 |
| RVRPLAVVTSLANLISPVRNGAVR | 2.84 |
| RVRPLAWVTSLANLISPVRNGAVR | 2.79 |
| RVRPLAYVTSLANLISPVRNGAVR | 2.77 |
| RVRPLARATSLANLISPVRNGAVR | 4.44 |
| RVRPLARCTSLANLISPVRNGAVR | 2.93 |
| RVRPLARDTSLANLISPVRNGAVR | 3.63 |
| RVRPLARETSLANLISPVRNGAVR | 3.54 |
| RVRPLARFTSLANLISPVRNGAVR | 2.28 |
| RVRPLARGTSLANLISPVRNGAVR | 2.32 |
| RVRPLARHTSLANLISPVRNGAVR | 2.49 |
| RVRPLARITSLANLISPVRNGAVR | 2.38 |
| RVRPLARKTSLANLISPVRNGAVR | 2.6 |
| RVRPLARLTSLANLISPVRNGAVR | 2.65 |
| RVRPLARMTSLANLISPVRNGAVR | 2.79 |
| RVRPLARNTSLANLISPVRNGAVR | 2.87 |
| RVRPLARPTSLANLISPVRNGAVR | 3.1 |
| RVRPLARQTSLANLISPVRNGAVR | 2.73 |
| RVRPLARRTSLANLISPVRNGAVR | 2.92 |
| RVRPLARSTSLANLISPVRNGAVR | 3.99 |
| RVRPLARTTSLANLISPVRNGAVR | 3.76 |
| RVRPLARWTSLANLISPVRNGAVR | 3.05 |
| RVRPLARYTSLANLISPVRNGAVR | 2.38 |
| RVRPLARVASLANLISPVRNGAVR | 2.81 |

| Variant | protein stability index |
| --- | --- |
| RVRPLARVCSLANLISPVRNGAVR | 3.08 |
| RVRPLARVDSLANLISPVRNGAVR | 3.73 |
| RVRPLARVESLANLISPVRNGAVR | 2.87 |
| RVRPLARVFSLANLISPVRNGAVR | 2.85 |
| RVRPLARVGSLANLISPVRNGAVR | 3.68 |
| RVRPLARVHSLANLISPVRNGAVR | 2.75 |
| RVRPLARVISLANLISPVRNGAVR | 1.84 |
| RVRPLARVKSLANLISPVRNGAVR | 3.69 |
| RVRPLARVLSLANLISPVRNGAVR | 2.09 |
| RVRPLARVMSLANLISPVRNGAVR | 2.66 |
| RVRPLARVNSLANLISPVRNGAVR | 3.38 |
| RVRPLARVPSLANLISPVRNGAVR | 2.74 |
| RVRPLARVQSLANLISPVRNGAVR | 3.81 |
| RVRPLARVRSLANLISPVRNGAVR | 2.76 |
| RVRPLARVSSLANLISPVRNGAVR | 3.45 |
| RVRPLARVVSLANLISPVRNGAVR | 2.96 |
| RVRPLARVWSLANLISPVRNGAVR | 3.24 |
| RVRPLARVYSLANLISPVRNGAVR | 3.12 |
| RVRPLARVTALANLISPVRNGAVR | 2.51 |
| RVRPLARVTCLANLISPVRNGAVR | 1.62 |
| RVRPLARVTDLANLISPVRNGAVR | 2.54 |
| RVRPLARVTELANLISPVRNGAVR | 3 |
| RVRPLARVTFLANLISPVRNGAVR | 1.46 |
| RVRPLARVTGLANLISPVRNGAVR | 2.52 |

| Variant | protein stability index |
| --- | --- |
| RVRPLARVTHLANLISPVRNGAVR | 2.54 |
| RVRPLARVTILANLISPVRNGAVR | 3.84 |
| RVRPLARVTKLANLISPVRNGAVR | 2.41 |
| RVRPLARVTLLANLISPVRNGAVR | 1.43 |
| RVRPLARVTMLANLISPVRNGAVR | 1.78 |
| RVRPLARVTNLANLISPVRNGAVR | 3.08 |
| RVRPLARVTPLANLISPVRNGAVR | 3.01 |
| RVRPLARVTQLANLISPVRNGAVR | 3.42 |
| RVRPLARVTRLANLISPVRNGAVR | 3.06 |
| RVRPLARVTVLANLISPVRNGAVR | 3.11 |
| RVRPLARVTWLANLISPVRNGAVR | 1.99 |
| RVRPLARVTYLANLISPVRNGAVR | 2.04 |
| RVRPLARVTSAANLISPVRNGAVR | 3.98 |
| RVRPLARVTSCANLISPVRNGAVR | 2.56 |
| RVRPLARVTSDANLISPVRNGAVR | 3.24 |
| RVRPLARVTSEANLISPVRNGAVR | 3.56 |
| RVRPLARVTSFANLISPVRNGAVR | 3.19 |
| RVRPLARVTSGANLISPVRNGAVR | 3.25 |
| RVRPLARVTSHANLISPVRNGAVR | 2.94 |
| RVRPLARVTSIANLISPVRNGAVR | 2.83 |
| RVRPLARVTSKANLISPVRNGAVR | 3.21 |
| RVRPLARVTSMANLISPVRNGAVR | 3.45 |

From the supplement of paper PMC10567573
